According to PMC4086636:

What follows are substances tested against domain 4 of the anthrax protective antigen (Bacillus anthracis) (UniProt P13423) (assay: cross-linking).

| Substance | Experimental Crosslinking (%) |
| --- | --- |
| M18 scFv with L-DOPA at position H_N58 | 24.4% |
| M18 scFv with L-DOPA at position H_D56 | 36.2% |
| M18 scFv with L-DOPA at position H_G53 | 40.3% |
| M18 scFv with L-DOPA at position H_S31 | 51.9% |
| M18 scFv with L-DOPA at position H_W33 | 13.9% |
| M18 scFv with L-DOPA at position H_D54 | 30.4% |
| M18 scFv with L-DOPA at position H_Y52 | 19.7% |
| M18 scFv with L-DOPA at position H_G55 | 5.1% |
